For experiment [1], the target named is T1, hB7-H4 (soluble human B7-H4, construct not named) (human, UniProt Q7Z7D3 25-259, limits assumed).
T1 construct: also called soluble hB7-H4
T1 sequence: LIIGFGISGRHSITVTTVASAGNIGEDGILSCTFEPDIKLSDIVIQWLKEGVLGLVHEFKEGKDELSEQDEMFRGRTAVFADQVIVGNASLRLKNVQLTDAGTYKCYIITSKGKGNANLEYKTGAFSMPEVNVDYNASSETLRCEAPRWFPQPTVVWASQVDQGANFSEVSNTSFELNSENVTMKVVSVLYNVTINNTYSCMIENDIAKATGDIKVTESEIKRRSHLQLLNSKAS
Briefly: ELISA, hB7-H4. The protocol:
(§1) About 1-2 μg/ml of human or mouse B7-H4-Fc (or his-tagged) was immobilized on ELISA plates (Immuno 2HB, Thermo scientific, cat #3455) at 4° C. overnight. After blocking the plates with 3% PBS+milk, serial diluted antibodies were added to the blocked plates and incubated at RT for 1-1.5 h. After washing the plates with PBS-T (0.05%), horse radish peroxidase (HRP)-conjugated antibody targeting the hFab was added to the plate. Signals were developed by adding 3,3′,5,5′-Tetramethylbenzidine (TMB (followed 1N of H₂SO₄ to stop the reaction. The OD at 450 nm was read by ELISA plate reader (Infinite M1000 from TECAN). GraphPad from Prism was used to plot OD450 vs. antibody concentration curve and to calculate the EC50 values.
A general note: In an ELISA, binding on a coated surface is turned into a signal by an enzyme label.

For experiment [2], the target named is T1, hB7-H4 (soluble human B7-H4, construct …). Briefly: SPR (Biacore).
Experiment [3] concerns the target T2, mB7-H4 (soluble mouse B7-H4, construct not named) (mouse, UniProt Q7TSP5 25-257, limits assumed).
T2 sequence: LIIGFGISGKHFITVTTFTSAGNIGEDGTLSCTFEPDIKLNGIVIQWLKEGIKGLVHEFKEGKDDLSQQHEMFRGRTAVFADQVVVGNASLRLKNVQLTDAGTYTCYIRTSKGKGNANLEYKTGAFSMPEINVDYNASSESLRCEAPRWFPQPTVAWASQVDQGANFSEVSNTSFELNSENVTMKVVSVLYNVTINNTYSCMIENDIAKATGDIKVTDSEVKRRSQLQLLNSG
Briefly: ELISA, mB7-H4. The method, then:
as §1

Experiment [4] addresses T3, human B7-H4 expressed on cells (human, UniProt Q7Z7D3 25-282).
T3 construct: Transfected CHO cells or tumor cell lines that carry hB7-H4; also called cellular hB7-H4
T3 sequence: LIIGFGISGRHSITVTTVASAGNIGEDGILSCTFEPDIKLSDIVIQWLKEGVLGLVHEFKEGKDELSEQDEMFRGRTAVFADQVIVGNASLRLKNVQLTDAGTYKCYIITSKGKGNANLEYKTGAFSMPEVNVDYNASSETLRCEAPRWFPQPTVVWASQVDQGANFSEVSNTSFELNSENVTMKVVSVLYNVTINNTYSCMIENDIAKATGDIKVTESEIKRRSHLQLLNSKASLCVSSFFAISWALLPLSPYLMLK
Briefly: flow cytometry, SK-BR-3 cells. (In general: A flow cytometer gives signals particle by particle.)

The target of experiment [5] is T4, mouse B7-H4-Fc (mouse; human).
T4 construct: also called mB7-H4-Fc; mB7-H4-hFc
T4 sequence (chain, as listed by the source): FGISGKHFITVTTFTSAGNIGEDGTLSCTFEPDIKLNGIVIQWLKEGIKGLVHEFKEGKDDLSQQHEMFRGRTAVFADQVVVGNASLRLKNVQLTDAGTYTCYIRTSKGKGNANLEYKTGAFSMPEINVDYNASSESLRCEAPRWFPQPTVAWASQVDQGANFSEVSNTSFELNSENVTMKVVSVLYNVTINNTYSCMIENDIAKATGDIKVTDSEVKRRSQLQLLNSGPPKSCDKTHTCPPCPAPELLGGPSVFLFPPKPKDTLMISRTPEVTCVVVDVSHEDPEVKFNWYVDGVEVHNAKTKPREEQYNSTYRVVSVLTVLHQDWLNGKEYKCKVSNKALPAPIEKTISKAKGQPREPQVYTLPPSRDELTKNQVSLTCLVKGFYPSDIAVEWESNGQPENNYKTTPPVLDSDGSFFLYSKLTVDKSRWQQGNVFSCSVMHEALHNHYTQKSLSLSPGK
Briefly: ELISA, coated mB7-H4-Fc. An outline of the steps: (§2)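 Coat: B7-H4-Fc or his-tagged protein, ~1-2 μg/ml, 4° C overnight. Block 3% PBS+milk; serial antibody dilutions 1-1.5 h RT; wash PBS-T (0.05%); HRP anti-hFab; TMB, 1N H₂SO₄ stop; OD450. EC50 from dose-response fit.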

Experiment [6] has as its target T5, mouse B7-H4 expressed on cells (mouse, UniProt Q7TSP5 25-257).
T5 construct: also called cellular mB7-H4; mB7-H4/CT26
T5 sequence: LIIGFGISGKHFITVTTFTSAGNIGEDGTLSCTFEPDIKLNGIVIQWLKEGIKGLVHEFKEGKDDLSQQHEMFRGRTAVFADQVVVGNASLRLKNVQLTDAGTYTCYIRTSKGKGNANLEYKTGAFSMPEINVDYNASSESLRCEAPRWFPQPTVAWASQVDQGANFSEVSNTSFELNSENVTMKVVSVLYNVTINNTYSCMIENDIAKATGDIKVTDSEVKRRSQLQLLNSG
Briefly: flow cytometry, mB7-H4/CT26 cells.

Experiment [7] addresses T6, IgC domain of human B7-H4-Fc (human).
T6 construct: also called hB7-H4 IgC domain
Briefly: ELISA, coated hB7-H4 IgC domain. The protocol:
ELISA experiments were performed to determine binding to hB7-H4-Fc (FIG. 5A), hB7-H4-his (FIG. 5B), mB7-H4-Fc domain (FIG. 5C), hB7-H4 IgV domain (FIG. 5D), and hB7-H4 IgC domain (FIG. 5E). Flow cytrometry experiments were performed to determine binding to CHO cells expressing hB7-H4 (FIG. 5F) or mB7-H4 (FIG. 5G). […] A cross-reactive IgV binding antibody and an IgC binding antibody were used as controls.
as §1

Experiment [8] has as its target T7, IgV domain of human B7-H4-Fc (human).
T7 construct: also called hB7-H4 IgV domain
Briefly: ELISA, coated hB7-H4 IgV domain.

The target of experiment [9] is T8, IgV domain of mouse B7-H4-Fc (mouse; human).
T8 construct: also called mB7-H4 IgV domain
T8 sequence (chain, as listed by the source): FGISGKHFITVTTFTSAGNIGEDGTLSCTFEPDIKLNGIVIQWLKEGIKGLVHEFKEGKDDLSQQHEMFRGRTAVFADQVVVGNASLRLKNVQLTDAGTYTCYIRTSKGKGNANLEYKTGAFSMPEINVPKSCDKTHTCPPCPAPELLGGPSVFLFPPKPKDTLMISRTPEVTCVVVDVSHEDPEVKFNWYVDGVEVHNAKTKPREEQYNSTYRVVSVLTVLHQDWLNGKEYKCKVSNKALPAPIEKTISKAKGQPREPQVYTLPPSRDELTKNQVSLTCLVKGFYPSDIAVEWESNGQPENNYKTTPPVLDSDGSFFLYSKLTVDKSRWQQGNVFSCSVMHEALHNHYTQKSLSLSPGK
Briefly: ELISA, coated mB7-H4 IgV domain.

Experiment [10] concerns the target T6, IgC domain of human B7-H4-Fc. Briefly: ELISA, coated hB7-H4 IgC domain. This is another data set of the same source.
Experiment [11] deals with T2, mB7-H4 (soluble mouse B7-H4, construct …). Briefly: SPR (Biacore); values equal to Table 11. Background: SPR reads the build-up and loss of mass on a sensor chip optically.
For experiment [12], the target named is T1, hB7-H4 (soluble human B7-H4, construct …). Briefly: ELISA, hB7-H4. Put shortly: as §2
The source holds these as a separate data set.

For experiment [13] the target is unchanged. Briefly: SPR (Biacore). Put shortly: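 Kinetic constants came from a 1:1 Langmuir fit of binding at 25 °C in HBS-EP, pH 7.4. Analyte (100 nM to 0.1 nM) flowed for 180 s, then dissociated for 1000 or 1200 s, over amine-coupled human B7-H4-Fc, human B7-H4-his or mouse B7-H4-Fc surfaces at 50-100 RU.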
This is another data set of the same source.

The target in experiment [14] is T2, mB7-H4 (soluble mouse B7-H4, construct …). Briefly: ELISA and SPR (Biacore). The method, then:
as §1
Surface plasmon resonance experiments were performed using a Biacore T200 instrument equipped with CM5 sensor chips. The system was equilibrated in running buffer HBS-EP pH 7.4. The ligands were immobilized using amine-coupling chemistry. The surfaces of flow cells one through four were activated for 5 min using an amine coupling kit at a flow rate of […]. The ligands (human B7-H4-Fc, human B7-H4-hism and mouse B7-H4-Fc; at a concentration of 5 μg/ml in 10 mM sodium acetate, pH 5.0) were immobilized at a density of 50-100 RU on flow cell 2, 3, 4 respectively. Flow cell 1 was left blank to serve as a reference surface. All flow cell surfaces were blocked with a 5 min injection of 1 M ethanolamine, pH 8.0. To collect kinetic binding data, the respective analyte (diluted in 1×HBS-EP buffer, pH 7.4) was injected over the four flow cells at concentrations of 100 nM to 0.1 nM at a flow rate of […] and at a temperature of 25° C. The protein complex was allowed to associate and dissociate for 180 seconds and 1000 or 1200 seconds, respectively. The surfaces were regenerated with a 30 second injection of 1.5 M NaCl/0.05 M NaOH. The data were fit to a simple 1:1 interaction model using the Langmuir fit option available within the Biaevaluaton software

Experiment [15] addresses T3, human B7-H4 expressed on cells. Briefly: flow cytometry, SK-BR-3 cells. An outline of the steps:
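Binding read on a Guava flow cytometer after two-step staining at 4 °C: serial dilutions of antibody or fusion protein for 1 h, then 1:200 secondary antibody for 30 min in the dark. Cells suspended at 1×10⁶ cells/ml in cold FACS buffer, washed three times between steps.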
The source holds these as a separate data set.

For experiment [16], the target named is T9, mouse B7-H4-his (mouse, UniProt Q7TSP5 25-257).
T9 construct: also called mB7-H4-his; mB7-H4-His; not shown: his tag
T9 sequence: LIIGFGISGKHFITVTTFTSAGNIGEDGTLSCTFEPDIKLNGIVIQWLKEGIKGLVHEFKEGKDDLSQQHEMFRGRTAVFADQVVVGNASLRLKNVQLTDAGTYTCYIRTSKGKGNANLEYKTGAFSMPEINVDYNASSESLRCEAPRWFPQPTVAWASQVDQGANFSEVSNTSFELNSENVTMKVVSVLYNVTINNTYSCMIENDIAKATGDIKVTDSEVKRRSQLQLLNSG
Briefly: ELISA, coated mB7-H4-his. The protocol: as §1

Experiment [17] deals with T8, IgV domain of mouse B7-H4-Fc. Briefly: ELISA, coated mB7-H4 IgV domain. Put shortly: as §2
This is another data set of the same source.

The target in experiment [18] is T5, mouse B7-H4 expressed on cells. Briefly: flow cytometry, CHO cells expressing mB7-H4.
Experiment [19] addresses T4, mouse B7-H4-Fc. Briefly: ELISA, coated mB7-H4-Fc (title on the sheet: Binding to mB7-H7-Fc). The method, then:
as §1

Experiment [20] deals with T10, IgC domain of mouse B7-H4-Fc (mouse; human).
T10 construct: also called mB7-H4 IgC domain
T10 sequence (chain, as listed by the source): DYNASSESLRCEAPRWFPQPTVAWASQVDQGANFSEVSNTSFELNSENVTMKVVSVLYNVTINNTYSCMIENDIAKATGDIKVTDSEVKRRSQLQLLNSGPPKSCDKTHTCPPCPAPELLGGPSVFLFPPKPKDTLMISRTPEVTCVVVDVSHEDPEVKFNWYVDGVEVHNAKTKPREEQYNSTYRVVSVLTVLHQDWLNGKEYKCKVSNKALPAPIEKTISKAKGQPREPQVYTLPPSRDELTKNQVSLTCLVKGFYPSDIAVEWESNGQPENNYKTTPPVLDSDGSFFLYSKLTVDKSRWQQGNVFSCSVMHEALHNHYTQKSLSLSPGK
Briefly: ELISA, coated mB7-H4 IgC domain (title on the sheet: IgC domain of mB7H4). The method, then: as §1

Experiment [21] has as its target T6, IgC domain of human B7-H4-Fc. Briefly: ELISA, coated hB7-H4 IgC domain (title on the sheet: IgC domain of hB7H4). The protocol:
as §1

Where two headings read alike, the source gives them in different places.

T6 sequence (chain, as listed by the source): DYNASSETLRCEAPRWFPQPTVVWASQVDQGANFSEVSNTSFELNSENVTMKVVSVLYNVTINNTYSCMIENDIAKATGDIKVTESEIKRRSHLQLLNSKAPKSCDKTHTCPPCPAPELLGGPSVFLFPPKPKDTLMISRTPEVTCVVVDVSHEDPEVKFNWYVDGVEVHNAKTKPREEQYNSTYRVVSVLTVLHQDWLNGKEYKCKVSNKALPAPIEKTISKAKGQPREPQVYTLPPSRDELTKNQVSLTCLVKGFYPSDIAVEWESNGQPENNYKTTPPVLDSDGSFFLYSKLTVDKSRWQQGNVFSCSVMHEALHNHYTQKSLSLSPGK
T7 sequence (chain, as listed by the source): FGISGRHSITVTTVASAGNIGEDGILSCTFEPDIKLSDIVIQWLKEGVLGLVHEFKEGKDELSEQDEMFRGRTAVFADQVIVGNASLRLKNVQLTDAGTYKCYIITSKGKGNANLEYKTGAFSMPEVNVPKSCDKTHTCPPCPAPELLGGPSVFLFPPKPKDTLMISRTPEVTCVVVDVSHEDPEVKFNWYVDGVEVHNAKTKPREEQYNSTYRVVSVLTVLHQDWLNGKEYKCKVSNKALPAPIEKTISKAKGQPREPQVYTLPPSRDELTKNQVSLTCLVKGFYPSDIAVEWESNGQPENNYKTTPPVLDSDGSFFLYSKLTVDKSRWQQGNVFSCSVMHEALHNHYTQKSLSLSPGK

B1: Control antibody 2 (antibody 6H3 described in U.S. Pat. No. 9,574,000) (antibody, V domains shown)
VH: EVQLQQSGPVLVKPGTSVKMSCKASGYTFTDYYMNWVKQSHGKSLEWIGVINPYNGDTTYNQKFKGKATLTVDKSSSTAYMEVNSLTFEDSAVYYCARYPESTYWGQGTLVTVSA
VL: DVVMTQTPLSLPVSLGDQASISCRSSQSLVHINGNTYLHWYLQKPGQSPKVLIYKVSNRFSGVPDRFSGSGSGTDFTLKISRVEAEDLGVYFCSQSTHVPLTFGAGTKLELK
notes: also called (+) control Ab2; Ab2
As usually defined, the EC50 is the concentration at which the effect is half-maximal. A high value points to lower potency in that assay. The Kd is a measure of binding affinity in units of concentration. Higher therefore signals weaker binding. In general, EC50 (read off the curve) refers to the concentration at which the effect is half-maximal. A higher EC50 (read off the curve) goes with a need for much substance. Consider B1, for which the EC50 in experiment [1] worked out at 222 pM; in [3], 289 pM; in experiment [4], 3370 pM; in experiment [6], 18400 pM. For the same molecule, the Kd in experiment [2] and in experiment [11] was 626 pM each time. Moreover, the binding result is “binds” in experiment [5], “no binding (tested: log 1 nM (10 nM))” in experiment [8] and “no binding (tested: log 1 nM (10 nM))” in experiment [9]. The 50% effective concentration (EC50 (read off the curve)) was roughly 0.01 µg/mL in experiment [7] and roughly 200 pM in [10].

B2: 1D3/45A2 (antibody, human IgG1, V domains shown)
VH: EVQLLESGGGLVQPGGSLRLSCAASGFTFNTHAMHWVRQAPGKGLEWVSAISGSGGSTYYADSVKGRFTISRDISKNTLYLQMNSLRAEDTAVYYCARLLGRFGEYGMDVWGQGTTVTVSS
VL: DIQMTQSPSSLSASVGDRVTITCRASQNIYTWLAWYQQKPGKAPKLLIYDATNLPTGVPSRFSGSGSGTDFTLTISSLQPEDFATYYCQQSYSTRWTFGGGTKVEIK
notes: 1D3 VH with 45A2 VL
For B2, the EC50 in experiment [12] worked out at 41 pM; in experiment [15], 52100 pM. The equilibrium dissociation constant (Kd) in experiment [13] is 317 pM. Moreover, the binding result in experiment [14] was “no binding”; in experiment [16], “no binding (tested: axis value -8 (labelled log nM))”; in experiment [17], “no binding (tested: axis value -8 (labelled log nM))”; in experiment [18], “no binding (tested: log 2 nM (100 nM))”; in [19], “no binding (tested: axis value -8 (log scale labelled nM))”; in [20], “no binding (tested: axis value -8 (labelled log nM))”. Further, the binding result in [21] is “no binding (tested: axis value -8 (labelled log nM))”.

B3: 1D3/47B2 (antibody, human IgG1, V domains shown)
VH: EVQLLESGGGLVQPGGSLRLSCAASGFTFNTHAMHWVRQAPGKGLEWVSAISGSGGSTYYADSVKGRFTISRDISKNTLYLQMNSLRAEDTAVYYCARLLGRFGEYGMDVWGQGTTVTVSS
VL: DIQMTQSPSSLSASVGDRVTITCRASQTVYTWLAWYQQKPGKAPKLLIYDATNLATGVPSRFSGSGSGTDFTLTISSLQPEDFATYYCQQSYSTSWTFGGGTKVEIK
notes: 1D3 VH with 47B2 VL
Turning to B3, the EC50 turned out to be 78 pM in experiment [12] and 36000 pM in experiment [15]. In experiment [13], this molecule gave a Kd of 209 pM. Besides, the binding result in [14] was “no binding”; in [16], “no binding (tested: axis value -8 (labelled log nM))”; in experiment [17], “no binding (tested: axis value -8 (labelled log nM))”; in experiment [18], “no binding (tested: log 2 nM (100 nM))”; in [19], “no binding (tested: axis value -8 (log scale labelled nM))”; in [20], “no binding (tested: axis value -8 (labelled log nM))”. Moreover, the binding result in [21] is on record as “no binding (tested: axis value -8 (labelled log nM))”.
